Key:
[1] = molecular target: T1, H3K4ac peptide of the tryptophan fluorescence and NMR titration experiments; test: tryptophan fluorescence; details: chain shown with the change; H3K4ac (1–12) peptide; triplicates
T1 chain: ARTKQTAR

[2] = molecular target: T2, unmodified H3 peptide of the tryptophan fluorescence and NMR titration experiments; test: tryptophan fluorescence; details: chain shown with the change; H3 (1–12) peptide; triplicates
T2 chain: ARTKQTARKSTG

B1: ZZZ3 ZZ domain (aa 800–903), GST cleaved, Q8IYH5 F821A (protein)
chain: KLKKQKLQQMQAESGFVQHVGAKCDNCGIEPIQGVRWHCQDCPPEMSLDFCDSCSDCLHETDIHKEDHQLEPIYRSETFLDRDYCVSQGTSYNYLDPNYFPANR
[1]
  Kd: 294 µM
[2]
  Kd: 271 µM
